Data published in patent US20240075093A1 (VIRGINIA TECH INTELLECTUAL PROPERTIES, published 2024).

Biological target: p110β (isolated PI3K protein subunit, cell-free kinase ELISA) (UniProt P42338 1-1070, limits assumed)
Assay: cell-based or functional assay

p110β (isolated PI3K protein subunit, cell-free kinase ELISA), sequence (P42338 whole entry): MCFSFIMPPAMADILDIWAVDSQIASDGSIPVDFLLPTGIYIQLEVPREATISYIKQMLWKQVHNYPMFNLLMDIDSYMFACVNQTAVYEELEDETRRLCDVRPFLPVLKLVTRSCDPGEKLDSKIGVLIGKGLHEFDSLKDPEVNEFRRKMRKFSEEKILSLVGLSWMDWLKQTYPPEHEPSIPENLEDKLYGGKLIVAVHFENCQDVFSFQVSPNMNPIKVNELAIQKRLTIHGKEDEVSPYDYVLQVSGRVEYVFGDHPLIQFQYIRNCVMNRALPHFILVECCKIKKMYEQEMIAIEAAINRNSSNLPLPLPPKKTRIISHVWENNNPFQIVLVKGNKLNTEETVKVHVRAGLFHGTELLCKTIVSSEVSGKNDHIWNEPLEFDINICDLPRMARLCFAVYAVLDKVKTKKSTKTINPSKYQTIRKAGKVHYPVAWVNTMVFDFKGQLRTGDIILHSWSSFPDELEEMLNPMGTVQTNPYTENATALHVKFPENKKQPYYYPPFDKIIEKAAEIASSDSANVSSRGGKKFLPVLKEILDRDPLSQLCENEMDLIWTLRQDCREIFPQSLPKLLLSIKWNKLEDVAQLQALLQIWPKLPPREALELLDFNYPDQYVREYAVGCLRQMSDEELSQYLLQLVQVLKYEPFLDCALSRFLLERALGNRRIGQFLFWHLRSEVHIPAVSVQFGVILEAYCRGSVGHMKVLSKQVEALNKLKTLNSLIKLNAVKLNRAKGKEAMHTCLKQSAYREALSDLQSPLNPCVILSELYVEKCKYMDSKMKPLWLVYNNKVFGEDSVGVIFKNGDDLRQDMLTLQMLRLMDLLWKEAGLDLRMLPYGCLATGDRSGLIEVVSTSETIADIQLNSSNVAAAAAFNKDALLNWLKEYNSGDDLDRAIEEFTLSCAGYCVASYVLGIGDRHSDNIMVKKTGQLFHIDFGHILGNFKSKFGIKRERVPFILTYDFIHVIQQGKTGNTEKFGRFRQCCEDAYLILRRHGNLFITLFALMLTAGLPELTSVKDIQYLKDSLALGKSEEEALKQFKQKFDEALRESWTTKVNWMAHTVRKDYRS

RQPKIWFPNRRKPWKKTKKSTKTINPSKYQTIRK [Ante-Selectide-18]
activity of the p110b catalytic subunit, measured via ELISA; Half Maximal Inhibitory Concentration (IC50): 105 nM
